Assay results reported in the supplement of paper PMC9170038.

Test system: MS2 coat protein
Experiment: apparent KD of MS2 coat protein; designed switch direction (-1 OFF switch, 1 ON switch): 1; higher = weaker reporter binding
Procedure, shortened: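 For each design, the apparent KD is the median over clusters of curves fitted to normalised cluster fluorescence. Clusters held RNA switches with common flanks, transcribed on Illumina chips by stalled E. coli RNA polymerase. These were titrated with SNAP-549-labelled MS2 coat protein, doubling from 0.7 or 1.5 nM to 3 µM, without input, with 200 uM small-molecule ligand, or with an oligonucleotide input.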

[1] = Eterna round: R95, input ligand: FMN 200 uM
[2] = Eterna round: R95, input ligand: microRNA oligo, concentration not stated
[3] = Eterna round: R95, input ligand: none
[4] = input ligand: microRNA oligo, concentration not stated

Sequence | apparent KD of MS2 coat protein [1] | apparent KD of MS2 coat protein [2] | apparent KD of MS2 coat protein [3] | apparent KD of MS2 coat protein (input ligand: FMN 200 uM) | apparent KD of MS2 coat protein [4] | apparent KD of MS2 coat protein (input ligand: none)
ACAAGCUUUUCUGCAUCGAAAGGUUGAUAACAUGAGGAUCACCCAUGUAAAUAUGAAAACGAUGCUCCUCGUCUUAU [JR_SHM208A_Sub095] (puzzle: Sensor for hsa-mir-208a) | 37.3 nM | 15.1 nM | 44.7 nM | – | – | –
ACAAGCUUUUUGCUCAUCUUAUGUCCGAAACAUGAGGAUCACCCAUGUGUAGAUUAUGUGUUGUUUUUGAUACGAGA [JR_SHM208A_Sub065] (puzzle: Sensor for hsa-mir-208a) | 68.1 nM | 28.4 nM | 80.3 nM | – | – | –
ACACCACAUGAGGAUCACCCAUGUGUCAAUAACACAGGAUAUCACCCGGAAUACACCGGGUGAGAAGGGUGACCGA [Gesois] (puzzle: Same State 1) | 158 nM | 30.1 nM | 25.4 nM | – | – | –
ACAGAGGGAAGACAGGAUAUUCGCGAUGGCACAUGAGGAUCACCCAUGUUUUGAGCACAUAAACAGAAGAAGGGUUAAAACUCAG [Veceanve] (puzzle: Same State 2) | 21.4 nM | 132 nM | 215 nM | – | – | –
ACAUGAGAAGGAGGAUAUUUUGUACCUACAUGUGACAUGAGGAUCACCCAUGUGGUAAGUAUGAGAAAGAAGGCCUAGAUAUGU [Equivalence 15 - Jieux - Same State NG 2] (Eterna round: R96, puzzle: Same State NG 2) | – | – | – | 21.3 nM | 21 nM | 36.3 nM
ACAUGAGACACAGGAUAUCAUGUACCUACAUGUGACAUGAGGAUCACCCAUGUGGUAAGUAUGACUGAGAAGGGUGAGAUAUGU [Equivalance 89 - Jieux - Same State NG 2] (Eterna round: R96, puzzle: Same State NG 2) | – | – | – | 369 nM | 394 nM | 962 nM
ACAUGAGACCAAGGAUAUGUUGUACCUACAUGUGACAUGAGGAUCACCCAUGUGGUAAGUAUGAGACAGAAGGUGGAGAUAUGU [Equivalence 27 - Jieux - Same State NG 2] (Eterna round: R96, puzzle: Same State NG 2) | – | – | – | 16.9 nM | 44.3 nM | 33.2 nM
ACAUGAGAGAAAGGAUAUCUUGUACCUACAUGUGACAUGAGGAUCACCCAUGUGGUAAGUAUGACAGAGAAGGUUCAGAUAUGU [Equivalance 71 - Jieux - Same State NG 2] (Eterna round: R96, puzzle: Same State NG 2) | – | – | – | 38.7 nM | 61.1 nM | 86.3 nM
ACAUGAGGAUCACCCAUGUAUUUAUUUGAAUCUUAAGUUACGUAGGAUAUCGUGUAUACUAUCAUCGAGAAGGACGAUGUGAUA [JR_SSNG3_Sub068] (Eterna round: R96, puzzle: Same State NG 3) | – | – | – | – | 12.5 nM | –
ACCCAAAGUAUAUGGGAACAAGCUUUUUAACAUGAGGAUCACCCAUGUACUCGUCUUAUAAGCAGUCGAAAGACUGC [hsa-mir-208a sensor: 100] (Eterna round: R96, puzzle: Sensor for hsa-mir-208a) | – | – | – | 557 nM | 14.3 nM | 877 nM
ACCCGCAGCCGUCAGGAUAUGUUCGCGUCAACAUGAGGAUCACCCAUGUGUGACAAGAAGUACACGCAGAAGGGAUCAAUGCGGG [Bienri] (Eterna round: R96, puzzle: Same State 2) | – | – | – | 13.4 nM | 11.7 nM | 17.8 nM
ACCCGCGACGGAGGAUAUGGGCACUCGGCGGAAUAAACCGCCAUAACAUGAGGAUCACCCAUGUCCCAGAAGGCCGUCGCAAUC [Zaonesdive] (Eterna round: R96, puzzle: Same State NG 2) | – | – | – | 107 nM | 303 nM | 2620 nM
ACGUGGAUAUCACAGGAUAUACUCAUAACUACAUGAGGAUCACCCAUGUAGCGGUAUUCCGAUGCGUAGAAGGGUGAUGGACCAC [Same State 2 - Mod of Artece v.2] (puzzle: Same State 2) | 13.9 nM | 14.9 nM | 17.4 nM | – | – | –
ACUAGAAACGGGCAAUAACACAUGAGGAUCACCCAUGUGACACAGGAUAUAACCAGAUCAGAAAGUUAGAAGGGUGAGCCCGCA [Edraed] (Eterna round: R96, puzzle: Same State NG 3) | – | – | – | 13.2 nM | 25.9 nM | 35 nM
ACUUGCUUUUUGCUCAUCUUAUGUCCGAAACAUGAGGAUCACCCAUGUGUAGAUUAUGUGUUGUUUUUGAUACGUGA [JR_SHM208A_Sub066] (puzzle: Sensor for hsa-mir-208a) | 24.9 nM | 19 nM | 26.9 nM | – | – | –
AGAAAACAUGAGGAUCACCCAUGUAGAAAUAUGGGAGGAUAUACAAAGACGAAAGUCGAGGUAGAAGGCCUAAAGA [Mat - Same State 1 - Meechl mod - D122] (Eterna round: R96, puzzle: Same State 1) | – | – | – | – | 77.9 nM | –

Sequence | apparent KD of MS2 coat protein [1] | apparent KD of MS2 coat protein [2] | apparent KD of MS2 coat protein [3] | apparent KD of MS2 coat protein (input ligand: FMN 200 uM) | apparent KD of MS2 coat protein [4] | apparent KD of MS2 coat protein (input ligand: none)
AGAAAACAUGAGGAUCACCCAUGUAUAGUGAAUACAGGAUAUCACCAACGGAAUAGUCGGUGAGAAGGGUGAUCGC [Zaxelate] (puzzle: Same State 1) | 18.5 nM | 11.3 nM | 14.2 nM | – | – | –
AGAAAACAUGAGGAUCACCCAUGUAUAGUGAAUACAGGAUAUCACCGGCUGAAAAGCCGGUGAGAAGGGUGAUCGC [Atorenri] (puzzle: Same State 1) | 149 nM | 18.6 nM | 7.7 nM | – | – | –
AGAAGGAGAGCGCAGGAUAUCGAUAAUGACACAUGAGGAUCACCCAUGUUUGGUAUUAGAAGGAACGAGAAGGGUGAAAGGAGAA [knee_arm_01] (puzzle: Same State 2) | 59.2 nM | 59.8 nM | 116 nM | – | – | –
AGACACAUGAGGAUCACCCAUGUCAUGAGCUUAGCUCGGGCACAGGAUAUCCGGUCCUAGAGACCGGAGAAGGGUGGCCGAAAA [Zara MOD] (Eterna round: R96, puzzle: Same State NG 3) | – | – | – | 396 nM | 323 nM | 670 nM
AGAGCCGGCACCGAGGAUAUUCAUAUUAAAACAUGAGGAUCACCCAUGUAGGCCAGAAGGCCUUGGGAGAAGGCGGAUCGGCUCG [Xeonanis - 7] (Eterna round: R96, puzzle: Same State 2) | – | – | – | 32.5 nM | 335 nM | 559 nM
AGAGCCGGCACCGAGGAUAUUCAUAUUAAAACAUGAGGAUCACCCAUGUAGGCCAGAAGGCCUUGGGAGAAGGCGGAUCGGCUCG [Xeonanis - 7] (puzzle: Same State 2) | 28.3 nM | 524 nM | 827 nM | – | – | –
AGAGUGUAUCCACAGGAUAUGCGAGCUGACACAUGAGGAUCACCCAUGUAGUCCUAAAGGGCUGAGCAGAAGGGUGGUAAAGCUC [Raesvelave] (puzzle: Same State 2) | 12.9 nM | 44.2 nM | 53.6 nM | – | – | –
AGAUGUUAAUUAGGAUAUGGACACAUGAGGAUCACCCAUGUAACGAAGAUACGAUGUGGUCAAGUCUAGAAGGGAUCGCUAACA [SameState NG2 #74] (Eterna round: R96, puzzle: Same State NG 2) | – | – | – | 38.1 nM | 26.9 nM | 36.6 nM
AGAUGUUAAUUAGGAUAUGGGCACAUGAGGAUCACCCAUGUAACGUAGAUACGAUGUGGUCAAGUCUAGAAGGGAUAGCUAACA [SameState NG2 #77] (Eterna round: R96, puzzle: Same State NG 2) | – | – | – | 72.5 nM | 59.3 nM | 70.6 nM
AGCAGAGAAAUAGGAUAUGGCUGAGACAUGACGGCGGUACAUGAGGAUCACCCAUGUCCGCAAAGCCAGAAGGGUUUUGAAUGU [Ticecexe] (Eterna round: R96, puzzle: Same State NG 2) | – | – | – | 13.7 nM | 16.5 nM | 33.4 nM
AGCCGAGACUGAGGAUAUUUGUAUCUACAUGAGGAUCACCCAUGUAGCAACACGUGGUAGUGAUCGAAGAAGGCAGCUCGGCGC [MOD2 of Omei's SS(NG)2 Cv2] (Eterna round: R96, puzzle: Same State NG 2) | – | – | – | 54 nM | 282 nM | 291 nM
AGCCUGAGUCGAGGAUAUUAUGGAUCAAUUAAUACAUGAGGAUCACCCAUGUAAUUAAUUUAACAUGAGAAGGUGACUCAGGCA [SSNG2/10-B1] (Eterna round: R96, puzzle: Same State NG 2) | – | – | – | – | 8.66 nM | –
AGCGAGAUAGGCAAGGAUAUGCUGGGUUUCACAUGAGGAUCACCCAUGUCAUUGGUUAUGUCCGAGCAGAAGGUGCAUUCUCUUU [ak bound state multiloop solution 2] (puzzle: Same State 2) | – | 250 nM | – | – | – | –
AGCUAAAACGAAGGAUAUACAAACAUGAGGAUCACCCAUGUAUACAUGAUUUAUUGUGAUCACAUGUAGAAGGUCGUACUAACA [SameState NG2 #19] (Eterna round: R96, puzzle: Same State NG 2) | – | – | – | – | 633 nM | –
AGCUAUUAAUCAGGAUAUAGGGACAUGAGGAUCACCCAUGUGUACAUGAUAAAAUGUGAUCACGUCUAGAAGGGAUUACUAACA [SameState NG2 #39] (Eterna round: R96, puzzle: Same State NG 2) | – | – | – | – | 52.5 nM | –
AGCUAUUACGAAGGAUAUUCUGACAUGAGGAUCACCCAUGUCUUCAUGAUUUAUUGUGAUCACAUGAAGAAGGUCGUACUAACA [SameState NG2 #24] (Eterna round: R96, puzzle: Same State NG 2) | – | – | – | – | 140 nM | –
